# Measured values taken from patent publication US20250186535A1, “OPHTALMIC COMPOSITIONS AND METHODS OF USING SAME” (Tarsier Pharma Ltd., priority 2021, published 2025).
# *1 amine or outer side, *2 acyl side, *3 side chain or, on linkers, in order; H or OH if unused. Where a SMILES comes first, the peptide text is derived from it. [ ]: non-standard residue; d: D form. X1 = C[N+](C)(C)CCOP(=O)([O-])Oc1ccc(/N=N/c2cc(C[C@H](N[*:1])C(=O)[*:2])ccc2O)cc1
# Experiment: Solubility of drug substance in water
# Format: physicochemical
# Procedure: Drug Substance [TRS]: is a trifluoroacetate [TFA] salt of phosphorylcholine-tuftsin conjugate represented by Formula 1, SEQ ID NO: 2 (as shown herein). Molecular formula: C43H68N13013P, Appearance: Yellow to orange solid. Solubility: >40 mg/ml in water.
structure (smiles),measurement,value
"C[C@@H](O)[C@H](N)C(=O)N[C@@H](CCCCN)C(=O)N1CCC[C@H]1C(=O)N[C@@H](CCCNC(=N)N)C(=O)NCC(=O)N[C@@H](Cc1ccc(O)c(/N=N/c2ccc(OP(=O)([O-])OCC[N+](C)(C)C)cc2)c1)C(=O)O [TRS, phosphorylcholine-tuftsin conjugate] (H-TKPRG[X1]-OH)",solubility,> 40 mg/mL
